The values below come from publication PMC4112721 (Plant Biotechnology Journal, 2013).

The experiment deals with T1, HIV-1 envelope glycoprotein gp120 IIIB (HIV-1 group M subtype B, isolate IIIB …, UniProt P03375).
T1 construct: gp120 surface glycoprotein, cut product of the HIV-1 Env precursor, isolate IIIB; also called recombinant gp120 III; HIV gp120 IIIB; source: purified recombinant; NIH ARRRP
The experiment is described as follows: SPR; Protein A amine-coupled on a CM5 chip, VRC01 captured to about 100 RU, gp120 IIIB injected at 20 ug/mL; BIAcore X-100, 25 °C, HBS-EP+ (10 mM HEPES pH 7.4, 150 mM NaCl, 3 mM EDTA, 0.05% surfactant P-20); 1:1 Langmuir fit; triplicate. The conditions noted are these: both partners purified. On the technique in general: Surface plasmon resonance follows binding to a sensor surface in real time, without labels.

B1: VRC01 from transiently transformed Nicotiana benthamiana plants (antibody, V domains shown)
VH: QVQLVQSGGQMKKPGESMRISCRASGYEFIDCTLNWIRLAPGKRPEWMGWLKPRGGAVNYARPLQGRVTMTRDVYSDTAFLELRSLTVDDTAVYFCTRGKNCDYNWDFEHWGRGTPVIVSS
VL: EIVLTQSPGTLSLSPGETAIISCRTSQYGSLAWYQQRPGQAPRLVIYSGSTRAAGIPDRFSGSRWGPDYNLTISNLESGDFGVYYCQQYEFFGQGTKVQVD
notes: IgG1 kappa; plant-codon-optimized genes, both chains on one pTRAk.2 vector; also called VRC01 transient; transient plant-derived VRC01
Broadly, the Kd is the concentration at which binding is half-saturated. Low values mean higher affinity, high ones lower affinity. Take B1: the Kd was 1.68 nM.

B2: VRC01 from HEK cells (antibody, V domains shown)
VH: B1 VH
VL: B1 VL
notes: as the heavy chain of m1; as the light chain of m1; IgG1 kappa; also called VRC01 HEK; HEK-cells-derived VRC01; source: HEK cells, purified
With B2, the affinity, expressed as Kd, was 0.66 nM.

B3: VRC01 from stably transformed (transgenic) Nicotiana tabacum plants (antibody, V domains shown)
VH: B1 VH
VL: B1 VL
notes: as the heavy chain of m1; as the light chain of m1; IgG1 kappa; source: N. tabacum cv
In turn, B3 returned a Kd of 1.39 nM.
